Assay results as given in patent US20250313621A1 (NXERA PHARMA UK, published 2025).
Residue numbers refer to the chain shown, from its start. Each block holds one binder with its values, some of them ahead of it.

Columns and labels:
[1] = molecular target: T1, Wildtype human PAR2 expressed on cells (human, UniProt P55085 37-397); assay: cell-based or functional assay
T1 sequence: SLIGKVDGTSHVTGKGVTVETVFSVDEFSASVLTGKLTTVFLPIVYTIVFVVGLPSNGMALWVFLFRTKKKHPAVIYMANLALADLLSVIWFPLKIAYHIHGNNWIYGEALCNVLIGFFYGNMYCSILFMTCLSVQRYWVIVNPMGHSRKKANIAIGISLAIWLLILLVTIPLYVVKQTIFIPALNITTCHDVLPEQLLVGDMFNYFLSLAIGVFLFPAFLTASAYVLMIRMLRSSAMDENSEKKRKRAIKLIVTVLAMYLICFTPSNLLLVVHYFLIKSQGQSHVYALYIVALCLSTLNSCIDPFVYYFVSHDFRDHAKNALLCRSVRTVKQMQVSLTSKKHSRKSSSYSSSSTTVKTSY

[2] = molecular target: T1, Wildtype human PAR2 expressed on cells; assay: cell-based or functional assay; remark: listed apart in the source
[3] = molecular target: T1, Wildtype human PAR2 expressed on cells; assay: KinExA, apparent KD; IgG titrated with BacMam infected HEK-293F cells expressing wild-type full-length human PAR2
Method: (§1) For the determination of apparent KD using “native” PAR2 (i.e. PAR2 expressed at the cell surface) KinExA methodology was applied to evaluate a subset of lead clones, namely Y022870 and Y02283. […] The cells were titrated in incubation buffer (D-PBS from Gibco, 0.5% (w/v) BSA, 0.02% (v/v) Sodium azide). The experiment consisted of two titrations with a low and a high fixed IgG concentration. In both titration experiments (stoichiometry- and affinity-controlled conditions), the maximum amount of cells had to contain a high enough effective ligand concentration to completely saturate the IgG. The mixtures of IgG and cells were incubated at room temperature overnight under very gentle agitation to allow for equilibrium formation. Subsequently, the formed cell-antibody complex was removed by centrifugation. The free IgG amounts of the supernatants were determined with goat anti-human F(ab′)₂ fragment specific antibody (Jackson ImmunoResearch, #109-005-097) coated on PMMA (Polymethylmethacrylat) beads and fluorescence detection with anti-human F(ab′)₂ fragment specific Alexa Fluor 647 antibody (Jackson ImmunoResearch, #109-605-097). […] The recorded titration curves were analyzed with KinExA Pro software 4.1.11 using the n-curve analyse tool by applying the “Equilibrium, whole cell” model. […] Values are in line with SPR determined using PAR2 nanodiscs (210 and 140 pM, respectively).

[4] = molecular target: T2, Human PAR2 StaR incorporated into nanodiscs (construct not stated) (human, UniProt P55085 37-377, limits assumed); assay: SPR Biacore; human PAR2 StaR incorporated into nanodiscs
T2 construct: also called nanodisc-embedded StaR
T2 sequence: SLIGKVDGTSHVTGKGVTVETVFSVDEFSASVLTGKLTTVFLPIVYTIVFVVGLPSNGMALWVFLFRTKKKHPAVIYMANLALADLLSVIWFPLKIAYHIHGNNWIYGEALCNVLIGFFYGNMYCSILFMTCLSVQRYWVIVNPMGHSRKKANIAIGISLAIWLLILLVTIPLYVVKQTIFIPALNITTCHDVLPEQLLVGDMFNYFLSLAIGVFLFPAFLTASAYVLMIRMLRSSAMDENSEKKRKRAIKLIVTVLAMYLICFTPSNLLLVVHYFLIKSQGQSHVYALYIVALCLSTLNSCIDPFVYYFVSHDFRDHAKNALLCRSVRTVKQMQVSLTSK

[5] = molecular target: T3, Soluble PAR2 StaR (recombinant human PAR2 StaR protein in detergent, construct not stated) (human, UniProt P55085 37-377, limits assumed); assay: SPR Biacore T200; IgG captured, PAR2 as analyte; 25 C, 90 min dissociation
T3 construct: also called purified PAR2
T3 sequence: T2 sequence

[6] = molecular target: T1, Wildtype human PAR2 expressed on cells; assay: KinExA, whole cell equilibrium, HEK-293F cells expressing WT full-length human PAR2 titrated against two fixed IgG concentrations, apparent KD; sheet also prints Expression Level: 7.951e+006 receptors/cell, Error: 2.06 %
Method: as §1

[7] = molecular target: T3, Soluble PAR2 StaR (recombinant human …); assay: SPR Biacore; soluble PAR2 StaR
Wildtype human PAR 1 = molecular target: T4, Wildtype human PAR 1 (human, UniProt P25116 42-425); assay: cell-based or functional assay
T4 sequence: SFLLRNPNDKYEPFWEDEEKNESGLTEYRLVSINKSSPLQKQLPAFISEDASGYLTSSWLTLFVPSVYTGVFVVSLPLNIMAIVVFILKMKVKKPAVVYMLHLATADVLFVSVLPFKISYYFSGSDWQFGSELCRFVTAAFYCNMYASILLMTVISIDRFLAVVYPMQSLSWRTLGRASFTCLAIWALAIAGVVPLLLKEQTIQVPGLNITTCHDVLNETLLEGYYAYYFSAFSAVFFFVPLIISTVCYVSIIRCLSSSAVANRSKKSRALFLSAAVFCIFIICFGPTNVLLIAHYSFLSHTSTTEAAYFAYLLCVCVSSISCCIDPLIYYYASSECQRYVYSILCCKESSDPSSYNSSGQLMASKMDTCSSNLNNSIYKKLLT

[8] = molecular target: T5, Cynomolgus PAR2 on BacMam-infected HEK293 cells (cynomolgus); assay: flow cytometry on HEK293F-cynoPAR2 (3.0E+06 cells/mL), S/BG
T5 construct: whole, on cells; also called cyno PAR-2; Cyno PAR2

[9] = molecular target: T1, Wildtype human PAR2 expressed on cells; assay: KinExA, whole cell equilibrium, HEK-293F cells expressing WT full-length human PAR2 titrated against two fixed IgG concentrations, apparent KD; sheet also prints Expression Level: 2.518e+006 receptors/cell, Error: 2.56 %
Method: as §1

AP IC50, HT-29 FLIPR calcium mobilisation [1]: 17.8 nM
Trypsin IC50, HT-29 FLIPR calcium mobilisation [1]: 40 nM
% Max Inhibition, AP challenge, IP-One [2]: 203%
Kd [3]: ~0.37 nM
Kd [4]: 2.7 nM
koff [4]: 0.00025 s⁻¹
kon [4]: 93000 M⁻¹ s⁻¹
Kd [5]: 0.21 nM
koff [5]: 7e-06 s⁻¹
kon [5]: 34000 M⁻¹ s⁻¹
t½ [5]: 27.6 h
Kd [6]: 0.373 nM
Kd [7]: 0.21 nM
koff [7]: 7e-06 s⁻¹
kon [7]: 34000 M⁻¹ s⁻¹
Human PAR1 SFLLR IC50, IP-One (Wildtype human PAR 1): > 3160 nM
SFLLR fold inhibition, human PAR1, IP-One (Wildtype human PAR 1): 0 fold
B1: Y022870 (antibody, human IgG1, lambda, V domains shown)
VH: EVQLLESGGGLVQPGGSLRLSCAASGFSFSRYAITWVRQAPGKGLEWVSTISALGLETYYAESVRGRFTISRDNSKNTLYLQMNSLRAEDTAVYYCARGFHYTHSGKRYYYPFDIWGQGTLVTVSS
VL: QSALTQPASVSGSPGQSITISCTGTSSDVGSYNLVSWYQQHPGKAPKLMIYEGSKRPSGVSNRFSGSKSGNTASLTISGLQAEDEADYYCSQYATFIAFAVFGGGTKLTVLG
notes: also called Y22870

AP IC50, HT-29 FLIPR calcium mobilisation [1]: 44.3 nM
Trypsin IC50, HT-29 FLIPR calcium mobilisation [1]: 49 nM
% Max Inhibition, AP challenge, IP-One [2]: 167%
Kd [4]: 2.8 nM
koff [4]: 0.00021 s⁻¹
kon [4]: 73000 M⁻¹ s⁻¹
Kd [5]: 0.3 nM
koff [5]: 8e-06 s⁻¹
kon [5]: 27000 M⁻¹ s⁻¹
t½ [5]: 24.1 h
EC50 (read off the curve) [8]: ~3 nM
Kd [7]: 0.3 nM
koff [7]: 8e-06 s⁻¹
kon [7]: 27000 M⁻¹ s⁻¹
Human PAR1 SFLLR IC50, IP-One (Wildtype human PAR 1): > 3160 nM
SFLLR fold inhibition, human PAR1, IP-One (Wildtype human PAR 1): 0 fold
B2: Y022877 (antibody, human IgG1, lambda, V domains shown)
VH: B1 VH with S28T, I34M, A53G, L56Q, T58A, E62G, R65K
VL: B1 VL
notes: also called Y22877

AP IC50, HT-29 FLIPR calcium mobilisation [1]: 42 nM
Trypsin IC50, HT-29 FLIPR calcium mobilisation [1]: 47 nM
% Max Inhibition, AP challenge, IP-One [2]: 149%
Kd [3]: ~0.26 nM
Kd [9]: 0.259 nM
Kd [5]: 0.4 nM
koff [5]: 1.2e-05 s⁻¹
kon [5]: 30000 M⁻¹ s⁻¹
t½ [5]: 16.2 h
EC50 (read off the curve) [8]: ~2 nM
Kd [7]: 0.4 nM
koff [7]: 1.2e-05 s⁻¹
kon [7]: 30000 M⁻¹ s⁻¹
Human PAR1 SFLLR IC50, IP-One (Wildtype human PAR 1): > 3160 nM
SFLLR fold inhibition, human PAR1, IP-One (Wildtype human PAR 1): 0 fold
B3: Y022883 (antibody, human IgG1, lambda, V domains shown)
VH: B1 VH with S30T, T35S, T50V, A53G, L54H, L56S, T58A, Y59N, R65K
VL: B1 VL
notes: also called Y22883; Y02283
